Assay results reported in publication PMC3034952 (Enzyme Research, 2011).
Positions count from the first letter of the chain named.

Key:
Assay in all cases: SEC; purified recombinant AtPDC E1 on a Superose 12 column in 50 mM TES-NaOH, pH 7.4, 50 mM NaCl, 0.1 mM TPP, 0.2 mM MgCl2; fractions analysed by SDS-PAGE and immunoblotting
Conditions in all cases: both partners purified
[1] = molecular target: T1, AtPDC E1α S292A mutant, H6-tagged (Arabidopsis thaliana, UniProt P52901 18-389, S292A)
T1 sequence (looked up): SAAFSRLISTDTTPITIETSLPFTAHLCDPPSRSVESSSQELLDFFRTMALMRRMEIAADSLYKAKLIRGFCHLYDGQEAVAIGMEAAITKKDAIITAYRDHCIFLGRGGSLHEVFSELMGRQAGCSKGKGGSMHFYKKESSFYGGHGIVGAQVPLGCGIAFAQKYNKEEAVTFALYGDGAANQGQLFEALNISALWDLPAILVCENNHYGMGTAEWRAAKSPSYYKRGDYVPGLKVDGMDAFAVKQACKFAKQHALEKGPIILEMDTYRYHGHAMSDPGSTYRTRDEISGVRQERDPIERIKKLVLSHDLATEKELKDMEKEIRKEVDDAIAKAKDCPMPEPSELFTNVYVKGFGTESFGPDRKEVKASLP

[2] = molecular target: T2, AtPDC E1α G297D mutant, H6-tagged (Arabidopsis thaliana, UniProt P52901 18-389, G297D)
T2 sequence (looked up): T1 sequence (looked up) with A275S, G280D

[3] = molecular target: T3, AtPDC E1α S292D mutant, H6-tagged (Arabidopsis thaliana, UniProt P52901 18-389, S292D)
T3 sequence (looked up): T1 sequence (looked up) with A275D

[4] = molecular target: T4, AtPDC E1α G297S mutant, H6-tagged (Arabidopsis thaliana, UniProt P52901 18-389, G297S)
T4 sequence (looked up): T1 sequence (looked up) with A275S, G280S

[5] = molecular target: T5, AtPDC E1α D295N mutant, H6-tagged (Arabidopsis thaliana, UniProt P52901 18-389, D295N)
T5 sequence (looked up): T1 sequence (looked up) with A275S, D278N

Measured: binding result

B1: Arabidopsis thaliana mitochondrial pyruvate dehydrogenase E1β subunit (AtPDC E1β), FLAG-tagged (enzyme, UniProt Q38799 30-363, looked up)
chain: AAGAKEMTVRDALNSAIDEEMSADPKVFVMGEEVGQYQGAYKITKGLLEKYGPERVYDTPITEAGFTGIGVGAAYAGLKPVVEFMTFNFSMQAIDHIINSAAKSNYMSAGQINVPIVFRGPNGAAAGVGAQHSQCYAAWYASVPGLKVLAPYSAEDARGLLKAAIRDPDPVVFLENELLYGESFPISEEALDSSFCLPIGKAKIEREGKDVTIVTFSKMVGFALKAAEKLAEEGISAEVINLRSIRPLDRATINASVRKTSRLVTVEEGFPQHGVCAEICASVVEESFSYLDAPVERIAGADVPMPYAANLERLALPQIEDIVRASKRACYRSK
binds: [1] | [2] | [3] | [4] | [5]
